Residue numbers refer to the chain shown, from its start. Some results are limits rather than exact numbers.

The target in experiment [1] is T1, recombinant CD47 extracellur domain protein (UniProt Q08722 19-139, limits assumed).
T1 construct: extracellular domain; ELISA antigen
The experiment in a line: ELISA. For orientation: ELISA stands for enzyme-linked immunosorbent assay.

Experiment [2] concerns the target T2, PD-L1 and CD47 double positive CHO cell pool (UniProt Q9NZQ7 19-290; Q08722 19-323, limits assumed).
T2 construct: whole, on cells; Two separate membrane proteins on one cell, not a complex; also called CD47 and PD-L1 double positive cells; double targets positive CHO cell
Nature of the experiment: flow cytometry, double positive against single positive CHO cell pools. On the technique in general: A flow cytometer gives signals particle by particle.

Experiment [3] deals with T3, recombinant PD-L1 extracellur domain protein (UniProt Q9NZQ7 19-238, limits assumed).
T3 construct: extracellular domain; ELISA antigen
The experiment in a line: ELISA.

In experiment [4] the target is T4, HER2 and CD47 double positive CHO cell pool (UniProt P04626 23-1255; Q08722 19-323, limits assumed).
T4 construct: whole, on cells; Two separate membrane proteins on one cell, not a complex; also called CD47+HER2+ double positive cells; double targets positive CHO cell
Nature of the experiment: flow cytometry, double positive against single positive CHO cell pools.

Experiment [5] addresses T5, recombinant HER2 extracellur domain protein (UniProt P04626 23-652).
T5 construct: extracellular domain; ELISA antigen
The experiment in a line: ELISA.

T1 sequence (Q08722 19-139 limits assumed): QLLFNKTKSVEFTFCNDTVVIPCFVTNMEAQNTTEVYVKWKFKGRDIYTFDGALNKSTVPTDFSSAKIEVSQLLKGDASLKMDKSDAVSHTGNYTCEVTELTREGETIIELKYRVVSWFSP
T2 sequence (Q9NZQ7 19-290 limits assumed, chain 1 of 2): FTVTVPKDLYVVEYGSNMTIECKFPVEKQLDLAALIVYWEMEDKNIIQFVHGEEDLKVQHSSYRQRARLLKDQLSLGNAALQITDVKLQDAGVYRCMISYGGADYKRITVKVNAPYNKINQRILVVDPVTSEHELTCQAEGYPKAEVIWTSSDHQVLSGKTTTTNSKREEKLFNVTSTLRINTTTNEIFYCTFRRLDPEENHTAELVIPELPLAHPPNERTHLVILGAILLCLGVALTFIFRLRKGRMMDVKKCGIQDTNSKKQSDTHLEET
T2 sequence (Q08722 19-323 limits assumed, chain 2 of 2): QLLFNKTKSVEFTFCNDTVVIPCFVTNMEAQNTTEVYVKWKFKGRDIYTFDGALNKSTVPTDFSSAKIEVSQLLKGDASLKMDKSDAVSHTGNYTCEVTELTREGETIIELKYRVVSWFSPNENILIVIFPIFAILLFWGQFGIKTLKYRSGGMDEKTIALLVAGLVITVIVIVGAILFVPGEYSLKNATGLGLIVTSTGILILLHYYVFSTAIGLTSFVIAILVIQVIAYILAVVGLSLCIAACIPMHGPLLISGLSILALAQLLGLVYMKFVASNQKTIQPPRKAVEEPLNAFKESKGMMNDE
T3 sequence (Q9NZQ7 19-238 limits assumed): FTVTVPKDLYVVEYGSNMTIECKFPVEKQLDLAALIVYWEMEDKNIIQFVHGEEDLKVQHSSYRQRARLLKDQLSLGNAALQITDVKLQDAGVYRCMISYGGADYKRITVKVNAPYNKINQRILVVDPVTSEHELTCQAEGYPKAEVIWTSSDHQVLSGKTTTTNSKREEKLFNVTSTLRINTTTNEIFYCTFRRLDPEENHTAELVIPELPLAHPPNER

B1: AbD066, bi-specific GCT Ab against HER2 and CD47 (bispecific antibody, V domains shown)
VH: EVQLVESGGGLVQPGGSLRLSCAASGFNIKDTYIHWVRQAPGKEREWVARIYPTNGYTRYADSVKGRFTISRDNAKDTVYLQMNSLRAEDTAVYYCSRWGGDGFYAMDYWGQGTLVTVSS
VL: ELQVIQPDKSVSVAAGESAILHCTVTSLIPVGPIQWFRGAGPARELIYNQKEGHFPRVTTVSESTKRNNMDFSIRIGNITPADAGTYYCVKFRKGSPDDVEFKSGAGTELSVRA
notes: Anti-HER2 single domain on IgG1 heavy chain, SIRPa domain on kappa chain; Fc of IgG1 wild type; Parents named as H069 and S012; also called ABP366 (AbD066 and AbD068-1)
As for B1, the binding acitivity in experiment [1] was above 100 nM.

B2: AbD036, bi-specific GCT Ab against PD-L1 and CD47 (bispecific antibody, human IgG1, kappa, L234A L235A)
heavy: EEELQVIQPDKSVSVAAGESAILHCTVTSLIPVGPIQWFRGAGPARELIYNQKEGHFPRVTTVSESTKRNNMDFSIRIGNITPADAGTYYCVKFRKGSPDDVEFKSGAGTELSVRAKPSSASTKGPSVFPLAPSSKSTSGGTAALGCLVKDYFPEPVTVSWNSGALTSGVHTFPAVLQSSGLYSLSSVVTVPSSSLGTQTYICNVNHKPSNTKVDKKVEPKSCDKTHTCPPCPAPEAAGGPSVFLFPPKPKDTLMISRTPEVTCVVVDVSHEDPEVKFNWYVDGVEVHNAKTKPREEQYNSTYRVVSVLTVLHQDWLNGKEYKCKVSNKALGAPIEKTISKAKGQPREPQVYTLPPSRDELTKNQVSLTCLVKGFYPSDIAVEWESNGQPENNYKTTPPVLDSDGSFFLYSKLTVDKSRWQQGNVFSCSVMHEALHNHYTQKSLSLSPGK
light: DSPDRPWNPPTFSPALLVVTEGDNATFTCSFSNTSESFVLNWYRMSPSNQTDKLAAFPEDRSQPGQDCRFRVTQLPNGRDFHMSVVRARRNDSGTYLCGAISRAPKAQIKESLRAELRVTERRAEVSSRTVAAPSVFIFPPSDEQLKSGTASVVCLLNNFYPREAKVQWKVDNALQSGNSQESVTEQDSKDSTYSLSSTLTLSKADYEKHKVYACEVTHQGLSSPVTKSFNRGEC
notes: SIRPa domain on IgG1 heavy chain, PD-1 IgV domain on kappa chain; also called ABP336
Turning to B2, in experiment [2], the “fold stronger staining than on the single target positive cells” value (shortened to “fold stronger staining than”) was around 10 fold. Further, the binding acitivity in experiment [3] and in experiment [1] was above 100 nM in each case.

B3: AbD037, bi-specific GCT Ab against PD-L1 and CD47 (bispecific antibody, human IgG1, kappa, L234A L235A)
heavy: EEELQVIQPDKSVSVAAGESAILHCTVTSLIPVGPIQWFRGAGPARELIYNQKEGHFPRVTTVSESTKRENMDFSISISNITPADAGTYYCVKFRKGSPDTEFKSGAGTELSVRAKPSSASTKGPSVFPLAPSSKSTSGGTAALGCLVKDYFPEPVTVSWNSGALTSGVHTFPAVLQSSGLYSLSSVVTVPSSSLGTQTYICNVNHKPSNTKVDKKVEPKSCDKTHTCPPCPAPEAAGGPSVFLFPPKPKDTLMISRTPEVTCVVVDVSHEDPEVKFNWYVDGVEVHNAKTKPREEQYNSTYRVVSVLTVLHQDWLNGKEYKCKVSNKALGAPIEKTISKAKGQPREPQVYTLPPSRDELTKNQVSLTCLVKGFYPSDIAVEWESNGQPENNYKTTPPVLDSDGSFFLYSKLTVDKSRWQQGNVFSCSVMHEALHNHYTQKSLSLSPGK
light: B2 light with R103L
notes: SIRPa domain on IgG1 heavy chain, PD-1 IgV domain on kappa chain; Parents named as P048 and S007; also called ABP336
Turning to B3, the “fold stronger staining than” value in experiment [2] was around 10 fold. In addition, the binding acitivity in experiment [3] and in experiment [1] was above 100 nM throughout.

B4: AbD068-1, bi-specific GCT Ab against HER2 and CD47 (bispecific antibody, human IgG1, kappa, V domains shown)
VH: QVQLVQSGGGLVQAGGSLRLSCAASGRTFSSYAMAWFRQAPGKEREFVAAISWSGANIYVADSVKGRFTISRDNAKDTVYLQMNSLKPEDTAVYYCAVKLGFAPVEERQYDYWGQGTQVTVSS
VL: not shown
notes: Anti-HER2 single domain on IgG1 heavy chain, SIRPa domain on kappa chain; Fc of IgG1 wild type; Parents named as H16 (H016) and S007; also called ABP366 (AbD066 and AbD068-1)
Consider B4, for which the “fold stronger staining than” value in experiment [4] is around 100 fold. The binding acitivity in experiment [1] is above 100 nM; in experiment [5], around 100 nM.

The values above are taken from patent publication US20210332135A1 (ANTIBODY BIOPHARM, published 2021).
